For this experiment, the target named is T1, Nectin-4 extracellular domain Fc fusion recombinant protein (Nec4-VCC) (human, UniProt Q96NY8 32-349).
T1 construct: extracellular domain; also called Nectin-4-VCC-Fc; not shown: Fc part
T1 sequence (looked up): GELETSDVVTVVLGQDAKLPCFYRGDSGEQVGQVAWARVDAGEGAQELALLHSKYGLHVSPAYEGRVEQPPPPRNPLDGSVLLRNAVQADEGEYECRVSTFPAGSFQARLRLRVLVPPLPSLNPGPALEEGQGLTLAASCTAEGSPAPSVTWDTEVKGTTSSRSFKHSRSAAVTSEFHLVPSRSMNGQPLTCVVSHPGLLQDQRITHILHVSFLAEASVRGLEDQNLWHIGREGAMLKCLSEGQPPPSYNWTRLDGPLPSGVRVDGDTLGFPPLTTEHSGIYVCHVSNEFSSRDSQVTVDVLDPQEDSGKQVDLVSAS
As to the kind of experiment: statement in the legend of the competition ELISA on Nec4-VCC. In general terms: In an ELISA, binding on a coated surface is turned into a signal by an enzyme label.

B1: Enfortumab (HA22) (antibody, V domains shown)
VH: EVQLVESGGGLVQPGGSLRLSCAASGFTFSSYNMNWVRQAPGKGLEWVSYISSSSSTIYYADSVKGRFTISRDNAKNSLSLQMNSLRDEDTAVYYCARAYYYGMDVWGQGTTVTVSS
VL: DIQMTQSPSSVSASVGDRVTITCRASQGISGWLAWYQQKPGKAPKFLIYAASTLQSGVPSRFSGSGSGTDFTLTISSLQPEDFATYYCQQANSFPPTFGGGTKVEIK
notes: also called HA22 mAb
Consider B1, for which the binding result is reported as “binds”.

The record behind these values is patent EP4086284A1 (Emergence Therapeutics AG, dated 2022).
